{"source": "paper PMC7277991", "about": "“Chemoenzymatic Synthesis and Biological Evaluation for Bioactive Molecules Derived from Bacterial Benzoyl Coenzyme A Ligase and Plant Type III Polyketide Synthase” (Biomolecules, 2020)", "molecules": {"B1": {"name": "stilbene synthase (STS) from Pinus sylvestris (Pinus sylvestris) (protein)", "chain": "MGGVDFEGFRKLQRADGFASILAIGTANPPNAVDQSTYPDFYFRITGNEHNTELKDKFKRICERSAIKQRYMYLTEEILKKNPDVCAFVEVPSLDARQAMLAMEVPRLAKEAAEKAIQEWGQSKSGITHLIFCSTTTPDLPGADFEVAKLLGLHPSVKRVGVFQHGCFAGGTVLRMAKDLAENNRGARVLVICSETTAVTFRGPSETHLDSLVGQALFGDGASALIVGADPIPQVEKACFEIVWTAQTVVPNSEGAIGGKVREVGLTFQLKGAVPDLISANIENCMVEAFSQFKISDWNKLFWVVHPGGRAILDRVEAKLNLDPTKLIPTRHVMSEYGNMSSACVHFILDQTRKASLQNGCSTTGEGLEMGVLFGFGPGLTIETVVLKSVPIQ", "notes": "recombinant in E. coli BL21 (DE3), Ni-NTA purified, size-exclusion"}}, "key": {"[1]": {"biological_target": "T1, benzoate CoA ligase (BadA) (Rhodopseudomonas palustris, UniProt Q6NC13, H333A/I334A, form not given)", "T1 construct": "recombinant in E. coli BL21 (DE3), Ni-NTA purified", "T1 sequence (Q6NC13 entry or part of it H333A/I334A, form open)": "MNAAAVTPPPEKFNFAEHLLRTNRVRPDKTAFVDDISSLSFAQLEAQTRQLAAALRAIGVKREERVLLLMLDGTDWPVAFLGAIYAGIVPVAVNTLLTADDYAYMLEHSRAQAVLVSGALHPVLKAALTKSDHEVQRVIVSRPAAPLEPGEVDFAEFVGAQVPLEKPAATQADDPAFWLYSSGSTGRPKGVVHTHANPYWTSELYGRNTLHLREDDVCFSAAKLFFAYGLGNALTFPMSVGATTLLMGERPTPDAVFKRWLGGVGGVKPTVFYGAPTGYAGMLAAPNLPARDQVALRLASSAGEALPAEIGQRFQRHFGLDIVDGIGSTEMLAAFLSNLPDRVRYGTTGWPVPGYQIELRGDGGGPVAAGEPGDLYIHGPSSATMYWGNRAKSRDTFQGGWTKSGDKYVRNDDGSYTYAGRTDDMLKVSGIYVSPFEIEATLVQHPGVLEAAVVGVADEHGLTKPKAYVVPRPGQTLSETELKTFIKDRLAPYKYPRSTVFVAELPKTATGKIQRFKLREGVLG", "assay": "X-ray crystal structure", "format": "binding", "settings": "acyl-adenylate intermediate in active site; thiolation conformation, no CoA"}, "[2]": {"biological_target": "T2, Malonyl-CoA synthetase from Rhizobium triofli (RtMCS) (Rhizobium leguminosarum, UniProt Q9ZIP5)", "T2 construct": "gene matB; recombinant in E. coli, Ni-NTA purified", "T2 sequence (Q9ZIP5 1-504)": "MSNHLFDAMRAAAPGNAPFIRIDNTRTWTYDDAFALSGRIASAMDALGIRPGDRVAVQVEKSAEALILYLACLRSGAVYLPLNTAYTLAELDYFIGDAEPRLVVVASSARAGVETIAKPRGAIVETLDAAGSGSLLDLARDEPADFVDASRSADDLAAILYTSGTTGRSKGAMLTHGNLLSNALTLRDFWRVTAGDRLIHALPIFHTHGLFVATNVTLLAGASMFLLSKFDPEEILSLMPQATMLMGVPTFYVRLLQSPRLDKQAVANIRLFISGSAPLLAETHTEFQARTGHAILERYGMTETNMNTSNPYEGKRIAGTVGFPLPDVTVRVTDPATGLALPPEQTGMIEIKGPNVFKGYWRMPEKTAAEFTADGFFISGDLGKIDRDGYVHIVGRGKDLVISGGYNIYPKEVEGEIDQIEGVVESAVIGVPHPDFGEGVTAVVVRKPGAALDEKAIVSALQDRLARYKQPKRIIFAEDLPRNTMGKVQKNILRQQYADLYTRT", "assay": "HPLC and LC-ESI-MS of malonyl-CoA", "format": "biochemical", "settings": "5 mM ATP, 2 mM CoA, 5 mM Mg2+, pH 7.5, room temperature; ATP regeneration"}, "[3]": {"substrate": "CC(C)(COP(=O)(O)OP(=O)(O)OC[C@H]1O[C@@H](n2cnc3c(N)ncnc32)[C@H](O)[C@@H]1OP(=O)(O)O)[C@@H](O)C(=O)NCCC(=O)NCCSC(=O)CCCCCCc1ccccc1", "assay": "HPLC product formation, Michaelis-Menten fit", "format": "biochemical, Pinus sylvestris", "settings": "60 μM malonyl-CoA, 100 mM potassium phosphate pH 7.4, 1 mM EDTA, 30 °C", "text": "(§1) HPLC product formation, Michaelis-Menten fit on stilbene synthase (STS) from Pinus sylvestris"}, "[4]": {"substrate": "CC(C)(COP(=O)(O)OP(=O)(O)OC[C@H]1O[C@@H](n2cnc3c(N)ncnc32)[C@H](O)[C@@H]1OP(=O)(O)O)[C@@H](O)C(=O)NCCC(=O)NCCSC(=O)CCCCCc1ccccc1", "assay": "HPLC product formation, Michaelis-Menten fit", "format": "biochemical, Pinus sylvestris", "settings": "60 μM malonyl-CoA, 100 mM potassium phosphate pH 7.4, 1 mM EDTA, 30 °C", "text": "as §1"}, "[5]": {"substrate": "CC(C)(COP(=O)(O)OP(=O)(O)OC[C@H]1O[C@@H](n2cnc3c(N)ncnc32)[C@H](O)[C@@H]1OP(=O)(O)O)[C@@H](O)C(=O)NCCC(=O)NCCSC(=O)CCCCc1ccc(F)cc1", "assay": "HPLC product formation, Michaelis-Menten fit", "format": "biochemical, Pinus sylvestris", "settings": "60 μM malonyl-CoA, 100 mM potassium phosphate pH 7.4, 1 mM EDTA, 30 °C", "text": "as §1"}, "[6]": {"substrate": "CC(C)(COP(=O)(O)OP(=O)(O)OC[C@H]1O[C@@H](n2cnc3c(N)ncnc32)[C@H](O)[C@@H]1OP(=O)(O)O)[C@@H](O)C(=O)NCCC(=O)NCCSC(=O)Cc1ccc(-c2ccccc2)cc1", "assay": "HPLC product formation, Michaelis-Menten fit", "format": "biochemical, Pinus sylvestris", "settings": "60 μM malonyl-CoA, 100 mM potassium phosphate pH 7.4, 1 mM EDTA, 30 °C", "text": "as §1"}, "[7]": {"substrate": "CC(C)(COP(=O)(O)OP(=O)(O)OC[C@H]1O[C@@H](n2cnc3c(N)ncnc32)[C@H](O)[C@@H]1OP(=O)(O)O)[C@@H](O)C(=O)NCCC(=O)NCCSC(=O)c1cnc(Cl)s1", "assay": "HPLC product formation, Michaelis-Menten fit", "format": "biochemical, Pinus sylvestris", "settings": "60 μM malonyl-CoA, 100 mM potassium phosphate pH 7.4, 1 mM EDTA, 30 °C", "text": "as §1"}, "[8]": {"substrate": "Cc1ncc(C(=O)SCCNC(=O)CCNC(=O)[C@H](O)C(C)(C)COP(=O)(O)OP(=O)(O)OC[C@H]2O[C@@H](n3cnc4c(N)ncnc43)[C@H](O)[C@@H]2OP(=O)(O)O)s1", "assay": "HPLC product formation, Michaelis-Menten fit", "format": "biochemical, Pinus sylvestris", "settings": "60 μM malonyl-CoA, 100 mM potassium phosphate pH 7.4, 1 mM EDTA, 30 °C", "text": "as §1"}, "[9]": {"substrate": "Cc1ncsc1C(=O)SCCNC(=O)CCNC(=O)[C@H](O)C(C)(C)COP(=O)(O)OP(=O)(O)OC[C@H]1O[C@@H](n2cnc3c(N)ncnc32)[C@H](O)[C@@H]1OP(=O)(O)O", "assay": "HPLC product formation, Michaelis-Menten fit", "format": "biochemical, Pinus sylvestris", "settings": "60 μM malonyl-CoA, 100 mM potassium phosphate pH 7.4, 1 mM EDTA, 30 °C", "text": "as §1"}}}
{"molecule": "Cc1ncc(C(=O)OP(=O)(O)OC[C@H]2O[C@@H](n3cnc4c(N)ncnc43)[C@H](O)[C@@H]2O)s1", "note": "[2-methylthiazole-5-carboxyl-AMP]", "values": [{"measurement": "X-ray crystal structure", "setting": "[1]", "result": "2-methylthiazole-5-carboxyl-AMP (2M5C-AMP) (PDB entry 6M2T) intermediate were obtained"}]}
{"molecule": "Nc1ncnc2c1ncn2[C@@H]1O[C@H](COP(=O)(O)OC(=O)c2cnc(Cl)s2)[C@@H](O)[C@H]1O", "note": "[2-chloro-1,3-thiazole-5-carboxyl-AMP]", "values": [{"measurement": "X-ray crystal structure", "setting": "[1]", "result": "in complex with a 2-chloro-1,3-thiazole-5-carboxyl-AMP (2Cl5C-AMP) (PDB entry 6M2U)"}]}
{"molecule": "O=C(O)CC(=O)O", "note": "[malonic acid]", "values": [{"measurement": "HPLC and LC-ESI-MS of malonyl-CoA", "setting": "[2]", "result": "Malonyl-CoA was chemo-enzymatically prepared from malonate, CoA, and ATP using RtMCS"}]}
{"molecule": "B1", "values": [{"measurement": "Km", "setting": "[3]", "result": 29.42, "unit": "µM"}, {"measurement": "kcat", "setting": "[3]", "result": 0.0045, "unit": "s⁻¹"}, {"measurement": "Km", "setting": "[4]", "result": 43.89, "unit": "µM"}, {"measurement": "Km", "setting": "[5]", "result": 4.15, "unit": "µM"}, {"measurement": "Km", "setting": "[6]", "result": 23.24, "unit": "µM"}, {"measurement": "kcat", "setting": "[6]", "result": 0.0035, "unit": "s⁻¹"}, {"measurement": "Km", "setting": "[7]", "result": 12.77, "unit": "µM"}, {"measurement": "kcat", "setting": "[7]", "result": 0.00317, "unit": "s⁻¹"}, {"measurement": "Km", "setting": "[8]", "result": 3.87, "unit": "µM"}, {"measurement": "kcat", "setting": "[8]", "result": 0.000167, "unit": "s⁻¹"}, {"measurement": "Km", "setting": "[9]", "result": 3.82, "unit": "µM"}, {"measurement": "kcat", "setting": "[9]", "result": 0.00267, "unit": "s⁻¹"}]}
